The test deals with amyloid β (1-28) (UniProt P05067). Briefly: trapping on beads in buffer, eluate by MALDI-TOF MS; ratio of detection limits.
Chain of UniProt P05067 (P05067 672-699 limits assumed): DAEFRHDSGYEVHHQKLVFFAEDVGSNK

Regarding 6E10 F(ab′)-PEG24 beads (Fab), the fold sensitivity against the IgG-protein G beads of each kind is 5 times.

(Values after patent US20220017583A1.)
